US9482669B2, “Crystal structure of the NanR and ManNAc-6P complex, and uses thereof” (priority 2013, dated 2016)

B1: K188A (protein)
chain: MGSPKNLLVRLRSNMEPFSKKLRVVADYILENAHDVQFQTITDLARNTQTSEATVVRLCRDMGYKGYSDFRMALAVDLSQTESRQQNHIEGDICDVSAQSAVDSLQDTAKLIDRKSLARIVERVHQAEFIGCIGVGASSIVGRYLAYRLIRIGKKAIMFEDTHLAAMSASRSSQGDLWFAVSSSGSTAEVIHAAGLAYKRDIPVVSLTNINHSPLSSLSTEMLVAARPEGPLTGGAFASKVGALLLVDVLVNSLLESYPEYKDSVQETAEVVIPLMAN
B2: K188L (protein)
chain: MGSPKNLLVRLRSNMEPFSKKLRVVADYILENAHDVQFQTITDLARNTQTSEATVVRLCRDMGYKGYSDFRMALAVDLSQTESRQQNHIEGDICDVSAQSAVDSLQDTAKLIDRKSLARIVERVHQAEFIGCIGVGASSIVGRYLAYRLIRIGKKAIMFEDTHLAAMSASRSSQGDLWFAVSSSGSTLEVIHAAGLAYKRDIPVVSLTNINHSPLSSLSTEMLVAARPEGPLTGGAFASKVGALLLVDVLVNSLLESYPEYKDSVQETAEVVIPLMAN
B3: S138A: modified NanR protein, Ser138 substituted with alanine (protein)
chain: MGSPKNLLVRLRSNMEPFSKKLRVVADYILENAHDVQFQTITDLARNTQTSEATVVRLCRDMGYKGYSDFRMALAVDLSQTESRQQNHIEGDICDVSAQSAVDSLQDTAKLIDRKSLARIVERVHQAEFIGCIGVGAASIVGRYLAYRLIRIGKKAIMFEDTHLAAMSASRSSQGDLWFAVSSSGSTKEVIHAAGLAYKRDIPVVSLTNINHSPLSSLSTEMLVAARPEGPLTGGAFASKVGALLLVDVLVNSLLESYPEYKDSVQETAEVVIPLMAN
B4: H163L: modified NanR protein, His163 substituted with leucine (protein)
chain: MGSPKNLLVRLRSNMEPFSKKLRVVADYILENAHDVQFQTITDLARNTQTSEATVVRLCRDMGYKGYSDFRMALAVDLSQTESRQQNHIEGDICDVSAQSAVDSLQDTAKLIDRKSLARIVERVHQAEFIGCIGVGASSIVGRYLAYRLIRIGKKAIMFEDTLLAAMSASRSSQGDLWFAVSSSGSTKEVIHAAGLAYKRDIPVVSLTNINHSPLSSLSTEMLVAARPEGPLTGGAFASKVGALLLVDVLVNSLLESYPEYKDSVQETAEVVIPLMAN
B5: H163A: modified NanR protein, His163 substituted with alanine (protein)
chain: MGSPKNLLVRLRSNMEPFSKKLRVVADYILENAHDVQFQTITDLARNTQTSEATVVRLCRDMGYKGYSDFRMALAVDLSQTESRQQNHIEGDICDVSAQSAVDSLQDTAKLIDRKSLARIVERVHQAEFIGCIGVGASSIVGRYLAYRLIRIGKKAIMFEDTALAAMSASRSSQGDLWFAVSSSGSTKEVIHAAGLAYKRDIPVVSLTNINHSPLSSLSTEMLVAARPEGPLTGGAFASKVGALLLVDVLVNSLLESYPEYKDSVQETAEVVIPLMAN
B6: E229L: modified NanR protein, Glu229 substituted with leucine (protein)
chain: MGSPKNLLVRLRSNMEPFSKKLRVVADYILENAHDVQFQTITDLARNTQTSEATVVRLCRDMGYKGYSDFRMALAVDLSQTESRQQNHIEGDICDVSAQSAVDSLQDTAKLIDRKSLARIVERVHQAEFIGCIGVGASSIVGRYLAYRLIRIGKKAIMFEDTHLAAMSASRSSQGDLWFAVSSSGSTKEVIHAAGLAYKRDIPVVSLTNINHSPLSSLSTEMLVAARPLGPLTGGAFASKVGALLLVDVLVNSLLESYPEYKDSVQETAEVVIPLMAN
B7: K240A: modified NanR protein, Lys240 substituted with alanine (protein)
chain: MGSPKNLLVRLRSNMEPFSKKLRVVADYILENAHDVQFQTITDLARNTQTSEATVVRLCRDMGYKGYSDFRMALAVDLSQTESRQQNHIEGDICDVSAQSAVDSLQDTAKLIDRKSLARIVERVHQAEFIGCIGVGASSIVGRYLAYRLIRIGKKAIMFEDTHLAAMSASRSSQGDLWFAVSSSGSTKEVIHAAGLAYKRDIPVVSLTNINHSPLSSLSTEMLVAARPEGPLTGGAFASAVGALLLVDVLVNSLLESYPEYKDSVQETAEVVIPLMAN
B8: K240M: modified NanR protein, Lys240 substituted with methionine (protein)
chain: MGSPKNLLVRLRSNMEPFSKKLRVVADYILENAHDVQFQTITDLARNTQTSEATVVRLCRDMGYKGYSDFRMALAVDLSQTESRQQNHIEGDICDVSAQSAVDSLQDTAKLIDRKSLARIVERVHQAEFIGCIGVGASSIVGRYLAYRLIRIGKKAIMFEDTHLAAMSASRSSQGDLWFAVSSSGSTKEVIHAAGLAYKRDIPVVSLTNINHSPLSSLSTEMLVAARPEGPLTGGAFASMVGALLLVDVLVNSLLESYPEYKDSVQETAEVVIPLMAN
B9: S184A: modified NanR protein, Ser184 substituted with alanine (protein)
chain: MGSPKNLLVRLRSNMEPFSKKLRVVADYILENAHDVQFQTITDLARNTQTSEATVVRLCRDMGYKGYSDFRMALAVDLSQTESRQQNHIEGDICDVSAQSAVDSLQDTAKLIDRKSLARIVERVHQAEFIGCIGVGASSIVGRYLAYRLIRIGKKAIMFEDTHLAAMSASRSSQGDLWFAVSSAGSTKEVIHAAGLAYKRDIPVVSLTNINHSPLSSLSTEMLVAARPEGPLTGGAFASKVGALLLVDVLVNSLLESYPEYKDSVQETAEVVIPLMAN
B10: S182A: modified NanR protein, Ser182 substituted with alanine (protein)
chain: MGSPKNLLVRLRSNMEPFSKKLRVVADYILENAHDVQFQTITDLARNTQTSEATVVRLCRDMGYKGYSDFRMALAVDLSQTESRQQNHIEGDICDVSAQSAVDSLQDTAKLIDRKSLARIVERVHQAEFIGCIGVGASSIVGRYLAYRLIRIGKKAIMFEDTHLAAMSASRSSQGDLWFAVASSGSTKEVIHAAGLAYKRDIPVVSLTNINHSPLSSLSTEMLVAARPEGPLTGGAFASKVGALLLVDVLVNSLLESYPEYKDSVQETAEVVIPLMAN
B11: R60L: modified NanR protein, Arg60 substituted with leucine (protein)
chain: MGSPKNLLVRLRSNMEPFSKKLRVVADYILENAHDVQFQTITDLARNTQTSEATVVRLCLDMGYKGYSDFRMALAVDLSQTESRQQNHIEGDICDVSAQSAVDSLQDTAKLIDRKSLARIVERVHQAEFIGCIGVGASSIVGRYLAYRLIRIGKKAIMFEDTHLAAMSASRSSQGDLWFAVSSSGSTKEVIHAAGLAYKRDIPVVSLTNINHSPLSSLSTEMLVAARPEGPLTGGAFASKVGALLLVDVLVNSLLESYPEYKDSVQETAEVVIPLMAN
B12: R57L: modified NanR protein, Arg57 substituted with leucine (protein)
chain: MGSPKNLLVRLRSNMEPFSKKLRVVADYILENAHDVQFQTITDLARNTQTSEATVVLLCRDMGYKGYSDFRMALAVDLSQTESRQQNHIEGDICDVSAQSAVDSLQDTAKLIDRKSLARIVERVHQAEFIGCIGVGASSIVGRYLAYRLIRIGKKAIMFEDTHLAAMSASRSSQGDLWFAVSSSGSTKEVIHAAGLAYKRDIPVVSLTNINHSPLSSLSTEMLVAARPEGPLTGGAFASKVGALLLVDVLVNSLLESYPEYKDSVQETAEVVIPLMAN

The molecules below were run on nanTp-nanE intergenic region (assay: EMSA of NanR with nanTp-nanE intergenic region). Conditions: wild-type or mutant NanR.
Format: binding, Vibrio vulnificus
Method: Purified His-NanR protein was used to raise a primary polyclonal antibody by immunizing European rabbits (Oryctolagus curiculus). First, after one primary injection containing 500 μg of protein, three boosters containing 200 μg of protein was performed at 2-week intervals. Western blotting, EMSA and DNaseI footprinting assays were performed according to typical procedures known in the art.
NanR represses both nan T(PSL)AR and nanEK nagA operons by binding to an operator within the nanTp-nanE intergenic region. To examine the role of R57 and R60 residues in DNA binding, EMSA (electrophoretic gel mobility shift assays), in which the nanTp-nanE intergenic region was incubated with wild-type or mutant NanR in the absence or presence of ManNAc-6P, were performed.
The importance of K188 and K199 residues on all to binding of NanR to DNA was assessed by EMSA. […] Furthermore, the mutants were much more susceptible to ManNAc-6P than wild-type NanR (FIG. 10). […] The transcriptional control region of nan operon interacts with the dimer via the positively charged residues in this space (FIGS. 7b and 7c).

Molecule	DNA binding in EMSA
B1	not as conspicuous as that of wild-type NanR
B2	not as conspicuous as that of wild-type NanR

Each molecule was assayed on PnanTp (assay: E. coli dual plasmid system (luciferase reporter fused to PnanTp)). Conditions: BSE1201 host, arabinose, presence or absence of Neu5Ac.
Format: cell-based
Method: E. coli strains were co-transformed with a luciferase reporter plasmid (pBS0915) and one of the pNB-series of plasmids that express NanR. Cells were cultured overnight and then diluted into the appropriate fresh media (supplemented M9 in FIG. 3; LB in FIG. 4) containing arabinose (0.002%), and incubated at 37° C. until cells grew to early exponential phase. Relative luminescence unit (RLU) was calculated by dividing the luminescence by the A600, as described previously. For screening ligand-sensing residues, the BSE1201 strain (ΔaraBAD ΔnanE) was used as the host cell instead of DH5α to ensure that the arabinose was not used as a carbon source and that ManNAc-6P generated from Neu5Ac was accumulated in the cell.
To assess the importance of the interaction between ManNAc-6P and NanR to regulation of the nan genes, the residues involved in ligand-binding were mutated and the impact on NanR function was investigated using an E. coli dual plasmid system. Cells were cotransformed with plasmids containing a luciferase reporter gene fused to the NanR-binding nanT(PSL)AR promoter (PnanTp), and wild-type or mutant NanR, and then incubated in the presence of arabinose and the presence or absence of Neu5Ac.
The simplest helix-turn-helix (HTH)-containing DBD includes three core helices; the HTH domains can form tetra-helical bundle, winged helix, and ribbon-helix-helix type configurations. The DBD of NanR is composed of a six-helix bundle, which is not the archetypal conformation of HTH-containing domains; therefore, the recognition helix required for DNA-binding could not been determined. […] The importance of these residues to DNA-binding was examined using an E. coli dual plasmid system described in Example 2. The repressive effect of wild-type NanR on activity of PnanTp was abolished by the R57A, R57L, R60A, and R60L point mutations (FIG. 4c).

Molecule	luciferase activity (PnanTp) after addition of Neu5Ac
B3	unable to activate PnanTp
B4	unable to activate PnanTp
B5	unable to activate PnanTp
B6	unable to activate PnanTp
B7	unable to activate PnanTp
B8	unable to activate PnanTp
B9	as active as wild-type NanR
B10	unable to activate PnanTp

Same assay, conditions: point mutations in DBD

Molecule	repressive effect of NanR on activity of PnanTp
B11	abolished
B12	abolished
